In US20210128683A1 (RISE BIOPHARMACEUTICALS, published 2021) one finds Kd data, which are given here for one molecule.

One experiment deals with T1, CXCR2 (UniProt P25025 1-360, limits assumed).
T1 construct: also called IL-8R
T1 sequence (looked up): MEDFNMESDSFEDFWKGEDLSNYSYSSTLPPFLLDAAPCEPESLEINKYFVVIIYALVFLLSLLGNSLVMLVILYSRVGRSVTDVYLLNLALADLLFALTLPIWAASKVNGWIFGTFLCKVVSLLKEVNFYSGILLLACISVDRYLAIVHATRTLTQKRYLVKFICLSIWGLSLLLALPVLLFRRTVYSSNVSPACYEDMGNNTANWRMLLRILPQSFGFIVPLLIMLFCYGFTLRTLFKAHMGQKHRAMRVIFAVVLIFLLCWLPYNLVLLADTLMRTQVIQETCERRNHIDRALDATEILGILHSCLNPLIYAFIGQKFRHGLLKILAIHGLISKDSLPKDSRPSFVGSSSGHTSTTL
Briefly: indirect ELISA, ONCO P8-CXCR2 complex formation. Background: An ELISA detects its analyte on a solid surface through an enzyme-linked reagent.

In a further experiment the target is T2, CXCR1 (UniProt P25024 1-350, limits assumed).
T2 construct: also called IL-8R
T2 sequence (looked up): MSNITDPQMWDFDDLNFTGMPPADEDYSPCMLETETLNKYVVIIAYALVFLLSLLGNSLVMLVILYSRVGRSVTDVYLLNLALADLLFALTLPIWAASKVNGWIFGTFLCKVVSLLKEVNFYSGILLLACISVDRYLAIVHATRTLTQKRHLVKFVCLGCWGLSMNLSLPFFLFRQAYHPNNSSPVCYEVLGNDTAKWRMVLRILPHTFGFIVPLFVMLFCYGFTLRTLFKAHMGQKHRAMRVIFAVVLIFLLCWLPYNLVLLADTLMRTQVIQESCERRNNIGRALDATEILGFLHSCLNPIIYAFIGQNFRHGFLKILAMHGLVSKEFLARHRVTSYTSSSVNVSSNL
Briefly: indirect ELISA, ONCO P8-CXCR1 complex formation. The text has this: The Kd Equation include: (1) i=A_{450 nm}/A^max_{450 nm}, then i=Ligand/Ligand^max; (2) 1/(1−i)=(Ligₜₒₜ/i)/Kd−b, b=fqSrec/Kd.

B1: ONCO P-8 (peptide)
chain: GSKELRCQCIRSYSKPFHPKFIKELRVIPASQFCANTEIIVKLSDGRELCLDPKENWVQRVVEKFLKRAENS
notes: Designed analogue of CXCL8 (IL-8), described as an antagonist of CXCR1 and CXCR2; also called chemokine receptor antagonistic modified peptide
For the molecule B1, the Kd with CXCR2 turned out to be 139 nM; with CXCR1, 286 nM.

Broadly, the Kd is the equilibrium constant for the complex coming apart. High values mean weaker binding, low ones tighter binding.
